Test results reported in patent US20070160576A1, “IL-17A/F heterologous polypeptides and therapeutic uses thereof” (Genentech, Inc., priority 2001, published 2007).
Entries after “also recorded” stand apart in the source; their conditions may differ. Like-named read-outs stand apart in the source and are kept apart here.

Experiments:
[1] = target: T1, PRO20040 (human IL-17RH2 receptor) (Homo sapiens, UniProt Q8NAC3); assay: Receptor/ligand interaction screening assay (immunoadhesin); format: binding
T1 sequence (Q8NAC3 21-791): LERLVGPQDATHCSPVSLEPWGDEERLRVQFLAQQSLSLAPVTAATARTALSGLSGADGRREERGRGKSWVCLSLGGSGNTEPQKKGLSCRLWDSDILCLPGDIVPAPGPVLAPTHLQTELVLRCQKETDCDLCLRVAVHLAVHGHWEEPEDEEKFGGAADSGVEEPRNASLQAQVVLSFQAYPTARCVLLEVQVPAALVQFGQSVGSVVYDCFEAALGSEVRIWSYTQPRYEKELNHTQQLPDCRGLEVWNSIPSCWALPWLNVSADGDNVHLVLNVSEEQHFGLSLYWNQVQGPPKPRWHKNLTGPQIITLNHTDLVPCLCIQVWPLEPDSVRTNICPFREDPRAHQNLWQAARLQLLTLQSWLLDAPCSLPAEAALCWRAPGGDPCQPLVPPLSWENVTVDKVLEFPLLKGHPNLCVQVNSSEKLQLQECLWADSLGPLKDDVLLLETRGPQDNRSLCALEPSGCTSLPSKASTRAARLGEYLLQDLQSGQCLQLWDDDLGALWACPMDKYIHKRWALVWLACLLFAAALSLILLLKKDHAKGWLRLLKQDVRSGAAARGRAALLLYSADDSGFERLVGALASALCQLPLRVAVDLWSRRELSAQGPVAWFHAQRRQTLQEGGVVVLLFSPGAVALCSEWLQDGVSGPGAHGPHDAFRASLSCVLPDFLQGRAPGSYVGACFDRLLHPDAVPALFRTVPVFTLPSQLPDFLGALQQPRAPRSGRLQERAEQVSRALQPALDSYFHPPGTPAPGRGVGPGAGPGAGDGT
Experimental: (§1) In general, the assay is performed as follows. A PRO polypeptide of the present invention suspected of being a ligand for a receptor is expressed as a fusion protein containing the Fc domain of human IgG (an immunoadhesin). Receptor-ligand binding is detected by allowing interaction of the immunoadhesin polypeptide with cells (e.g. Cos cells) expressing candidate PRO polypeptide receptors and visualization of bound immunoadhesin with fluorescent reagents directed toward the Fc fusion domain and examination by microscope. Cells expressing candidate receptors are produced by transient transfection, in parallel, of defined subsets of a library of cDNA expression vectors encoding PRO polypeptides that may function as receptor molecules. Cells are then incubated for 1 hour in the presence of the PRO polypeptide immunoadhesin being tested for possible receptor binding. The cells are then washed and fixed with paraformaldehyde. The cells are then incubated with fluorescent conjugated antibody directed against the Fc portion of the PRO polypeptide immunoadhesin (e.g. FITC conjugated goat anti-human-Fc antibody). The cells are then washed again and examined by microscope. A positive interaction is judged by the presence of fluorescent labeling of cells transfected with cDNA encoding a particular PRO polypeptide receptor or pool of receptors and an absence of similar fluorescent labeling of similarly prepared cells that have been transfected with other cDNA or pools of cDNA. If a defined pool of cDNA expression vectors is judged to be positive for interaction with a PRO polypeptide immunoadhesin, the individual cDNA species that comprise the pool are tested individually (the pool is “broken down”) to determine the specific cDNA that encodes a receptor able to interact with the PRO polypeptide immunoadhesin.
(§2) In another embodiment of this assay, an epitope-tagged potential ligand PRO polypeptide (e.g., 8 histidine “His” tag) is allowed to interact with a panel of potential receptor PRO polypeptide molecules that have been expressed as fusions with the Fc domain of human IgG (immunoadhesins). Following a 1 hour co-incubation with the epitope tagged PRO polypeptide, the candidate receptors are each immunoprecipitated with protein A beads and the beads are washed. Potential ligand interaction is determined by Western blot analysis of the immunoprecipitated complexes with antibody directed towards the epitope tag. An interaction is judged to occur if a band of the anticipated molecular weight of the epitope tagged protein is observed in the Western blot analysis with a candidate receptor, but is not observed to occur with the other members of the panel of potential receptors.

[2] = target: human IL-17 receptor (IL-17R, PRO1) (Homo sapiens, UniProt Q96F46); assay: as above; format: binding
Experimental: as §1, §2

[3] = target: T2, PRO5801 (human IL-17RH1 receptor) as tested in the receptor/ligand screen (human, UniProt Q9NRM6 18-292, limits assumed); assay: receptor/ligand screen, FIG. 14
T2 sequence (looked up): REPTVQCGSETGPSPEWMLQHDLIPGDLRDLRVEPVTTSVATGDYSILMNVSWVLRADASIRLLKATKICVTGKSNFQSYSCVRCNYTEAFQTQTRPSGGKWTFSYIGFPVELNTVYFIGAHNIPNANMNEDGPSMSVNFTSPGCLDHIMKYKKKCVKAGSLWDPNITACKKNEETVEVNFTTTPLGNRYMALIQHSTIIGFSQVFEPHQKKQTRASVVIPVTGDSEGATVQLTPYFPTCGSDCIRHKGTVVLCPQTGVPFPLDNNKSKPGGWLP
From the text: A PRO polypeptide of the present invention suspected of being a ligand for a receptor is expressed as a fusion protein containing the Fc domain of human IgG (an immunoadhesin). Receptor-ligand binding is detected by allowing interaction of the immunoadhesin polypeptide with cells (e.g. Cos cells) expressing candidate PRO polypeptide receptors and visualization of bound immunoadhesin with fluorescent reagents directed toward the Fc fusion domain and examination by microscope. Cells expressing candidate receptors are produced by transient transfection, in parallel, of defined subsets of a library of cDNA expression vectors encoding PRO polypeptides that may function as receptor molecules. Cells are then incubated for 1 hour in the presence of the PRO polypeptide immunoadhesin being tested for possible receptor binding. The cells are then washed and fixed with paraformaldehyde. The cells are then incubated with fluorescent conjugated antibody directed against the Fc portion of the PRO polypeptide immunoadhesin (e.g. FITC conjugated goat anti-human-Fc antibody). The cells are then washed again and examined by microscope. A positive interaction is judged by the presence of fluorescent labeling of cells transfected with cDNA encoding a particular PRO polypeptide receptor or pool of receptors and an absence of similar fluorescent labeling of similarly prepared cells that have been transfected with other cDNA or pools of cDNA. If a defined pool of cDNA expression vectors is judged to be positive for interaction with a PRO polypeptide immunoadhesin, the individual cDNA species that comprise the pool are tested individually (the pool is “broken down”) to determine the specific cDNA that encodes a receptor able to interact with the PRO polypeptide immunoadhesin.
In another embodiment of this assay, an epitope-tagged potential ligand PRO polypeptide (e.g., 8 histidine “His” tag) is allowed to interact with a panel of potential receptor PRO polypeptide molecules that have been expressed as fusions with the Fc domain of human IgG (immunoadhesins). Following a 1 hour co-incubation with the epitope tagged PRO polypeptide, the candidate receptors are each immunoprecipitated with protein A beads and the beads are washed. Potential ligand interaction is determined by Western blot analysis of the immunoprecipitated complexes with antibody directed towards the epitope tag.

B1: IL-17F: human IL-17F ligand, SEQ ID NO:4 (protein, listed as Homo sapiens)
chain: MTVKTLHGPAMVKYLLLSILGLAFLSEAAARKIPKVGHTFFQKPESCPPVPGGSMKLDIGIINENQRVSMSRNIESRSTSPWNYTVTWDPNRYPSEVVQAQCRNLGCINAQGKEDISMNSVPIQQETLVVRRKHQGCSVSFQLEKVLVTVGCTCVTPVIHHVQ
In the case of B1, the “binding to IL-17RH2 receptor (PRO20040)” value [1] is reported as “has been shown to bind; also recorded: binds to”, the “binding to IL-17RH2 receptor (PRO20040)” value ([1]; listed as PRO20110) is reported as “binds to” and the “binding to human IL-17 receptor (IL-17R, PRO1)” value (“binding to human IL-17 receptor” below) [2] is reported as “binds to”.

B2: PRO21175 (IL-17D ligand) (ligand, UniProt Q8TAD2 16-202, looked up)
chain: AGAPRAGRRPARPRGCADRPEELLEQLYGRLAAGVLSAFHHTLQLGPREQARNASCPAGGRPADRRFRPPTNLRSVSPWAYRISYDPARYPRYLPEAYCLCRGCLTGLFGEEDVRFRSAPVYMPTVVLRRTPACAGGRSVYTEAYVTIPVGCTCVPEPEKDADSINSSIDKQGAKLLLGPNDAPAGP
For B2, the binding result [3] was “no binding”, the “binding to IL-17RH2 receptor (PRO20040)” value [1] was “do not interact” and the “binding to human IL-17 receptor” value [2] was “do not interact”.

B3: PRO1122 (IL-17C ligand) (ligand, UniProt Q9P0M4 19-197, looked up)
chain: HHDPSLRGHPHSHGTPHCYSAEELPLGQAPPHLLARGAKWGQALPVALVSSLEAASHRGRHERPSATTQCPVLRPEEVLEADTHQRSISPWRYRVDTDEDRYPQKLAFAECLCRGCIDARTGRETAALNSVRLLQSLLVLRRRPCSRDGSGLPTPGAFAFHTEFIHVPVGCTCVLPRSV
With B3 the binding result [3] was “no binding”, the “binding to IL-17RH2 receptor (PRO20040)” value [1] was “do not interact” and the “binding to human IL-17 receptor” value [2] was “do not interact”. For the same molecule, the “binding to human IL-17 receptor” value ([2]; listed as PRO1122) was “do not bind”.
